Source: paper PMC5421877, “SOCS3 inhibits the pathological effects of IL-22 in non-melanoma skin tumor-derived keratinocytes” (Oncotarget, 2017)

Columns and labels:
Assay type in all cases: cell-based, human
Details in all cases: IL-22 time course, no peptide, n = 3
MEK phosphorylation = experiment: Western blot of MEK phosphorylation in healthy keratinocytes (IL-22)
Procedure: (§1) Figure 5 KIR-ESS peptide inhibits IL-22-induced phosphorylation of STAT3 and Erk in healthy and SCC-derived keratinocytes (A) Protein extracts obtained from healthy keratinocytes (n = 3) pre-treated or not with 15 μM (left panel) or 75 μM (right panel), KIR, KIR-ESS and control (Ctrl1 or Ctrl2) peptides, and, then, […], were subjected to WB analysis to detect STAT3 (Tyr705), Erk and MEK phosphorylation. Filters were probed with anti-STAT3, -Erk and –MEK Abs (top). (B) Protein extracts obtained from healthy keratinocytes (n = 3) pre-treated or not with 75 μM KIR-ESS and control (Ctrl1) peptides, and, then, stimulated or not with IL-22 for 10 min, were subjected to immunoprecipitation for IL-22R1 and Jak1, and then analysed by WB to detect phosphorylated and unphosphorylated forms of the proteins. (C) Unphosphorylated and phosphorylated forms of STAT1 (Tyr701) and STAT3 (Tyr705) were monitored in keratinocytes treated with IFN-γ for 15 min by WB analysis (bottom). In all experimental groups, filters were stripped and re-probed with β-actin Ab. (D) Protein extracts were obtained from CAL27 (left panel) or CAL33 (right panel) lines treated or not with 75 μM peptides in presence of IL-22 or IFN-γ. WB was performed to detect basal and phosphorylated STAT1, STAT3 and Erk. D.I. ratio indicates the densitometric intensity of phosphorylated/unphosphorylated target protein. […]

[1] = test system: STAT3 phosphorylation in healthy keratinocytes; experiment: Western blot of STAT3 phosphorylation in healthy keratinocytes (IL-22)
Procedure: as §1

[2] = test system: Erk1/2 phosphorylation in healthy keratinocytes; experiment: Western blot of Erk1/2 phosphorylation in healthy keratinocytes (IL-22)
Procedure: as §1

B1: IL-22: cytokine stimulus, R&D Systems (protein, UniProt Q9GZX6 34-179, looked up)
Interleukin-22: APISSHCRLDKSNFQQPYITNRTFMLAKEASLADNNTDVRLIGEKLFHGVSMSERCYLMKQVLNFTLEEVLFPQSDRFQPYMQEVVPFLARLSNRLSTCHIEGDDLHIQRNVQKLKDTVKKLGESGEIKAIGELDLLFMSLRNACI
For B1, the MEK1/2 activation (MEK phosphorylation) was “culminated with STAT3, MEK1/2 and Erk1/2 activation”, the STAT3 activation [1] was “culminated with STAT3, MEK1/2 and Erk1/2 activation” and the Erk1/2 activation [2] was “culminated with STAT3, MEK1/2 and Erk1/2 activation”.
